Laboratory results from US11680267B2, “Co-regulatory sequences based on tetracycline and Cumate” (Shenzhen Eureka Biotechnology Co., Ltd., priority 2020, dated 2023).

Tests used:
Type in all cases: cell-based
293T-rtTA3G-CymR cells [1] = assay: Luciferase fluorescence intensity assay, transient transfection, both DOX and Cumate vs DOX alone (Example 2)
Description: The experiment described in the present Example is to study and verify the effect of the position and copy number of the CuO operator in the Tet-On and Cumate complex response element on the induced expression level and non-induced leaky expression level of the complex response element, and to optimize and confirm the optimal position and copy number of the CuO operator. In the present Example, based on the 7×TetO sequence in the TRE3G response element and the minimal promoter sequence #1 (SEQ ID NO: 25), the response elements TRE3GCuO14 (10-317 bp in SEQ ID NO: 8), TRE3GCuO30 (SEQ ID NO: 28), TRE3GCuO50 (SEQ ID NO: 23) and TRE3GCuO100 (10-403 bp in SEQ ID NO: 10) were designed by linking a CuO operator sequence at 10 bp to 100 bp downstream of the TATA box (at 14 bp, 30 bp, 50 bp and 100 bp downstream of the TATA box, respectively), and a Luciferase reporter gene sequence was linked downstream of the 3′ end of the above response elements, to construct plasmids 18BF251, 18BF252, 18BF235 and 18BF253. Further, in order to study the effect of multiple copies of CuO operators, 2, 4 and 6 copies of CuO operator sequences were respectively inserted at 50 bp downstream of the TATA box, to design the response elements TRE3GCuO2x (10-411 bp in SEQ ID NO: 11), TRE3GCuO4x (10-527 bp in SEQ ID NO: 12) and TRE3GCuO6x (10-643 bp in SEQ ID NO: 13), and then a Luciferase reporter gene sequence was linked downstream of 3′ end of the above response elements to construct plasmids 18BF254, 18BF255 and 18BF256. In 293T-rtTA3G-CymR cells stably expressing rtTA3G and CymR genes, the above plasmids were transiently transfected, and the optimal position and number of CuO operator were validated by measuring the luciferase […] value of samples added with both DOX and Cumate inducers and that of the control added with the DOX inducer only. The specific experimental methods were as follows:
(§1) 293T cells were seeded at 1.5E+06 cells per 60 mm culture dish, and cultured in DMEM (Sigam, D6429) complete medium supplemented with 10% FBS (ExCell, 11H116) at 37° C. and 5% CO 2. After 24 hours of culture, transfection was carried out according to the PEI method. During transfection, 500 μL of transfection reagent which contained 5.5 ug of total plasmid was added to each 60 mm culture dish, and the mass ratio of total plasmid to PEI MAX (Polysciences, 24765-1) was 1:4. The transfection was carried out according to the PEI method, wherein the amount of total plasmid was 5.5 μg. The transfection was performed with plasmids 19BF074:18BF019 at a molar ratio of 10:1 to obtain 293T-rtTAadv-CymR cells; and the transfection was performed with plasmids 19BF075:18BF019 at a molar ratio of 10:1 to obtain 293T-rtTA3G-CymR cells. The plasmid and PEI MAX were mixed uniformly, and then put into a culture dish after standing for 15 minutes. 3 hours after transfection, the medium was changed to a complete DMEM medium, and the transfection operation was completed. After 24 hours of transfection, the cells were digested with trypsin and all seeded in a 100 mm culture dish (Corning, 430167), and 200 μg/ml of hygromycin (Sangon Biotech A600230-0001) drug screening was performed for at least three passages. After the growth of cells under the pressure of drug screening was consistent with that of the original 293T cells, the following experiments were performed.
The 293T-rtTA3G-CymR cells were seeded in a 96-well plate (Corning 3916) at 2.5E+04 cells per well, and the medium was 100 microliters of DMEM complete medium. […]

293T-rtTAadv-CymR cells = assay: Luciferase assay, transient transfection, DOX and Cumate vs no inducer (Example 3), rtTAadv cells
Protocol: as §1
(§2) In Tet-On inducible expression system, the induced transcription activity and the leaky transcription activity were comprehensively affected by the TetO operator linking sequence of the TRE response element and the minimal promoter sequence, as well as different mutants of the transactivator rtTA. In addition, the transport and stability of messenger ribonucleic acid may be enhanced by linking a spliceable intron sequence downstream of the 3′ end of the response element and upstream of the 5′ end of the regulated nucleic acid fragment of interest, but the induced transcription activity and leaky transcription activity of response element of the inducible expression system may also be affected. Based on this, the optimal design scheme of complex response element was determined in this Example based on the induced expression level and the ratio of induced/leaky expression level of Luciferase gene under the combination of the following conditions: (1) Tet-On and Cumate complex response elements TREadvCuO and TRE3GCuO designed based on the TREadv and TRE3G response element sequences; (2) whether an intron was linked; (3) being regulated by the transactivator rtTAadv or rtTA3G. A total of 8 design schemes were compared in this Example: TREadv (18BF232), TREadvCuO (18BF233), TRE3G (18BF234), TRE3GCuO (18BF235), TREadv-BGI (18BF240, wherein the response element was TREadv, and a human β-globulin intron was linked between the 3′ end of the response element and the 5′ end of the Luciferase gene), TREadvCuO-BGI (18BF241, wherein the response element was TREadvCuO, and a human β-globulin intron was linked between the 3′ end of the response element and the 5′ end of the Luciferase gene), TRE3G-BGI (18BF236, wherein the response element was TRE3G, and a human β-globulin intron was linked between the 3′ end of the response element and the 5′ end of the Luciferase gene) and TRE3GCuO-BGI (18BF237, wherein the response element was TRE3GCuO, and a human β-globulin intron was linked between the 3′ end of the response element and the 5′ end of the Luciferase gene). The promoter CMV-BGI (18BF229, wherein the promoter was CMV, and a human β-globulin intron was linked between the 3′ end of the CMV promoter and the 5′ end of the Luciferase gene) was used as a positive control. […]

293T-rtTA3G-CymR cells [2] = assay: Luciferase assay, transient transfection, DOX and Cumate vs no inducer (Example 3), rtTA3G cells
Protocol: as §1, §2

[3] = 1 ug/ml DOX and 200 ug/ml Cumate

B1: TRE3GCuO: Tet-On (7xTetO of TRE3G) and Cumate complex response element, CuO 50 bp behind the TATA box (SEQ ID NO: 23) (nucleic acid)
DNA: TCCCTATCAGTGATAGAGAACGTATGAAGAGTTTACTCCCTATCAGTGATAGAGAACGTATGCAGACTTTACTCCCTATCAGTGATAGAGAACGTATAAGGAGTTTACTCCCTATCAGTGATAGAGAACGTATGACCAGTTTACTCCCTATCAGTGATAGAGAACGTATCTACAGTTTACTCCCTATCAGTGATAGAGAACGTATATCCAGTTTACTCCCTATCAGTGATAGAGAACGTATTAGGCGTGTACGGTGGGCGCCTATAAAAGCAGAGCTCGTTTAGTGAACCGTCAGATCGCCTGGAGCAATTCCACATACAAACAGACCAGATTGTCTGTTTGTT
modifications: TRE3GCuO50 response element sequence
induced expression level as % of the induced expression level of TRE3G response element (293T-rtTA3G-CymR cells [1]; [3]): 66.0%
ratio of induced/leaky expression level based on Cumate inducible expression system, relative to that of TRE3G response element (293T-rtTA3G-CymR cells [1]; DOX and Cumate vs DOX only): 2.81 times
induced expression level (293T-rtTA3G-CymR cells [1]; transient transfection, 1 ug/ml DOX and 200 ug/ml Cumate, 24 hours after transfection): 4.53E+06 RLU
increase of induced/leaky expression ratio of TRE3GCuO over TREadvCuO (293T-rtTAadv-CymR cells): 16.4%
induced expression level as % of the induced expression level of TRE3G (293T-rtTAadv-CymR cells): 50.4%
induced expression level (293T-rtTAadv-CymR cells; [3]): 3.4E+06 RLU
induced expression level as % of that of the corresponding TRE3G or TREadv single regulatory response element (293T-rtTAadv-CymR cells; DOX and Cumate): 50.4%
induced/leaky expression ratio (293T-rtTAadv-CymR cells; DOX and Cumate vs no inducer): 1565 times
increase of induced/leaky expression ratio of TRE3GCuO over TREadvCuO (293T-rtTA3G-CymR cells [2]; 293T-rtTA3G-CymR cells): 37.6%
induced expression level as % of the induced expression level of TRE3G (293T-rtTA3G-CymR cells [2]; 293T-rtTA3G-CymR cells / regulation of rtTA3G): 61.8%
induced expression level (293T-rtTA3G-CymR cells [2]; 293T-rtTA3G-CymR cells, 1 ug/ml DOX and 200 ug/ml Cumate): 4.24E+06 RLU
induced expression level as % of that of the single regulatory response element (293T-rtTA3G-CymR cells [2]; 293T-rtTA3G-CymR cells, DOX and Cumate): 61.8%
induced/leaky expression ratio (293T-rtTA3G-CymR cells [2]; 293T-rtTA3G-CymR cells, DOX and Cumate vs no inducer): 2635 times
